Results taken from patent US20200317768A1 (published 2020).
Where a chain is given by its changes, count along the chain named.

T1: cynomolgus monkey FcγRIIa1 extracellular domain, C-terminal His-tag (cynomolgus monkey)
T1 construct: also called cyno FcγRIIa1; cynoFcgRIIa1
T1 chain: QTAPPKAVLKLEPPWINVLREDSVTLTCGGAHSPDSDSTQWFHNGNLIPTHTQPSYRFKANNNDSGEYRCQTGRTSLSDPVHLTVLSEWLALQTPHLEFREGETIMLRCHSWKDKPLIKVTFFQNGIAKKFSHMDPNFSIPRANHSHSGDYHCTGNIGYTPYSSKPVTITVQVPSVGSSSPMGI

T2: cynomolgus monkey FcγRIIa3 extracellular domain, C-terminal His-tag (cynomolgus monkey)
T2 construct: also called cyno FcγRIIa3; cynoFcgRIIa3
T2 chain: T1 chain with P95T, T121A, A128S, H133P, D135N

T3: cynomolgus monkey FcγRIIb extracellular domain, C-terminal His-tag (cynomolgus monkey)
T3 construct: also called cyno FcγRIIb; cynoFcγRIIb
T3 chain: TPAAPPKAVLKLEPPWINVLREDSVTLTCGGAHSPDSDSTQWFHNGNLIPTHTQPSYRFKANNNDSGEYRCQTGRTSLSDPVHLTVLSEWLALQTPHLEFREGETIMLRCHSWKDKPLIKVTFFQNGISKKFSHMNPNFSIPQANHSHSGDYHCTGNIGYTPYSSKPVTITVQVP

T4: cynomolgus monkey FcγRIIIaS extracellular domain, C-terminal His-tag (cynomolgus monkey, UniProt Q8SPW2 21-206 at identity 1.00))
T4 construct: also called cyno FcγRIIIaS; cynoFcγRIIIaS
T4 chain: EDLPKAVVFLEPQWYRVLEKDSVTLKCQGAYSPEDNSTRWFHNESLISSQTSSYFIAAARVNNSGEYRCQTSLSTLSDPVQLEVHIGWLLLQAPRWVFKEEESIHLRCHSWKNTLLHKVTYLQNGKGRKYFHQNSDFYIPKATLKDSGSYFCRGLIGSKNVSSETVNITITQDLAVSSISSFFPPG

T5: human FcγRIIaH extracellular domain, C-terminal His-tag (human, UniProt P12318 34-217)
T5 construct: also called human FcγRIIa (type H); FcgRIIaH
T5 sequence: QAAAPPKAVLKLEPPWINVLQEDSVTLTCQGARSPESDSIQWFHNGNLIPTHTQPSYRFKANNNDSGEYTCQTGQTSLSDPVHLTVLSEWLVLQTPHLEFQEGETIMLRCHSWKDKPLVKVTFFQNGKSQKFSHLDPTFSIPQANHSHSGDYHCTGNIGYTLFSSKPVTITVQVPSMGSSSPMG

T6: human FcγRIIaR extracellular domain, C-terminal His-tag (human, UniProt P12318 34-217)
T6 construct: also called human FcγRIIa (type R); FcgRIIaR
T6 chain: T5 sequence with H134R

T7: human FcγRIIb extracellular domain, C-terminal His-tag (human, UniProt P31994 43-217)
T7 construct: also called human FcgRIIb; FcgRIIb
T7 sequence: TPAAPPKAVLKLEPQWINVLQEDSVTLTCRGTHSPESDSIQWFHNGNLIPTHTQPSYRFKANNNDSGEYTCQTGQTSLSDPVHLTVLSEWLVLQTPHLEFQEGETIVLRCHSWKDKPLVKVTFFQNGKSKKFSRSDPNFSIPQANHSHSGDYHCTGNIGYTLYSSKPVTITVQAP

B1: MS_M103205H795-SG1/M103202L889-SK1 (antibody, human IgG1, kappa)
heavy: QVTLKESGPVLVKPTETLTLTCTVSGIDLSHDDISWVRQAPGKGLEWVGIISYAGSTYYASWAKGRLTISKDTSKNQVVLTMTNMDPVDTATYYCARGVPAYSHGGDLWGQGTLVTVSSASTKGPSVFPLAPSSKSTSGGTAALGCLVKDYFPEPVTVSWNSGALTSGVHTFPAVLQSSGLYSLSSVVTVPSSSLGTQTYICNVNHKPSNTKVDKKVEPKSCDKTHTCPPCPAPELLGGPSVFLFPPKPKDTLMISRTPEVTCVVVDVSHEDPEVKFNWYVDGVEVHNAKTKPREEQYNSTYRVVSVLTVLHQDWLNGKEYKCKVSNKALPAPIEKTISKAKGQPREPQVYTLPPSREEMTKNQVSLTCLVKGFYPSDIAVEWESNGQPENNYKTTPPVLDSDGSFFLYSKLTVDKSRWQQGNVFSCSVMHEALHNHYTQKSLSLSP
light: DIVMTQSPATLSLSPGERATLSCTSSQSVYHANWLSWFQQKPGQPPKLLIYWASTLAYGVPSRFSGSGSGTDFTLTISSLQPEDAATYYCAGGYGGGRYAFGQGTKVEIKRTVAAPSVFIFPPSDEQLKSGTASVVCLLNNFYPREAKVQWKVDNALQSGNSQESVTEQDSKDSTYSLSSTLTLSKADYEKHKVYACEVTHQGLSSPVTKSFNRGEC
notes: Parent of the Fc variants; also called MS1032LO06-SG1
B2: M103205H795-MY050/M103202L889-SK1 (antibody, human IgG1, kappa)
heavy: QVTLKESGPVLVKPTETLTLTCTVSGIDLSHDDISWVRQAPGKGLEWVGIISYAGSTYYASWAKGRLTISKDTSKNQVVLTMTNMDPVDTATYYCARGVPAYSHGGDLWGQGTLVTVSSASTKGPSVFPLAPSSKSTSGGTAALGCLVKDYFPEPVTVSWNSGALTSGVHTFPAVLQSSGLYSLSSVVTVPSSSLGTQTYICNVNHKPSNTKVDKKVEPKSCDKTHTCPPCPAPELLNGPSVFLFPPKPKDTLMISRTPEVTCVVVDVAEEDPEVKFNWYVDGVEVHNAKTKPREEQYNSTYRVVSVLTVLHQDWLNGKEYKCKVSNKALPAPIEKTISKAKGQPREPQVYTLPPSREEMTKNQVSLTCLVKGFYPSDIAVEWESNGQPENNYKTTPPVLDSDGSFFLYSKLTVDKSRWQQGNVFSCSVMHEALHNHYTQKSLSLSP
light: B1 light
notes: Substitutions introduced into M103205H795-SG1; expressed with M103202L889-SK1 as light chain
B3: M103205H795-MY052/M103202L889-SK1 (antibody, human IgG1, kappa)
heavy: B2 heavy with A269S, P398M
light: B1 light
notes: as for B2
B4: M103205H795-MY048/M103202L889-SK1 (antibody, human IgG1, kappa)
heavy: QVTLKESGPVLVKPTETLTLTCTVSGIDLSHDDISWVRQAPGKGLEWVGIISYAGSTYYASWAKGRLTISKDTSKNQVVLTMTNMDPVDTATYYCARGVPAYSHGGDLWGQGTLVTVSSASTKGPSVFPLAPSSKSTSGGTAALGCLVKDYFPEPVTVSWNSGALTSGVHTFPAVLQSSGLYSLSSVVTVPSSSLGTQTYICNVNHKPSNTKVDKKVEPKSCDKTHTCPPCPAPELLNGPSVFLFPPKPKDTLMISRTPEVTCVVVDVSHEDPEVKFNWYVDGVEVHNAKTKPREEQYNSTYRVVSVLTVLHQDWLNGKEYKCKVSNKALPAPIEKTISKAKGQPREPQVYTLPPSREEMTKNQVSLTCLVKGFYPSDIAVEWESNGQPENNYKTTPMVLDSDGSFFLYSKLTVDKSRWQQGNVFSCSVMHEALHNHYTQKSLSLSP
light: B1 light
notes: as for B2
B5: M103205H795-MY047/M103202L889-SK1 (antibody, human IgG1, kappa)
heavy: not shown
light: B1 light
notes: as for B2
B6: M103205H795-MY051/M103202L889-SK1 (antibody, human IgG1, kappa)
heavy: B2 heavy with A269S, P273G
light: B1 light
notes: as for B2
B7: M103205H795-MY049/M103202L889-SK1 (antibody, human IgG1, kappa)
heavy: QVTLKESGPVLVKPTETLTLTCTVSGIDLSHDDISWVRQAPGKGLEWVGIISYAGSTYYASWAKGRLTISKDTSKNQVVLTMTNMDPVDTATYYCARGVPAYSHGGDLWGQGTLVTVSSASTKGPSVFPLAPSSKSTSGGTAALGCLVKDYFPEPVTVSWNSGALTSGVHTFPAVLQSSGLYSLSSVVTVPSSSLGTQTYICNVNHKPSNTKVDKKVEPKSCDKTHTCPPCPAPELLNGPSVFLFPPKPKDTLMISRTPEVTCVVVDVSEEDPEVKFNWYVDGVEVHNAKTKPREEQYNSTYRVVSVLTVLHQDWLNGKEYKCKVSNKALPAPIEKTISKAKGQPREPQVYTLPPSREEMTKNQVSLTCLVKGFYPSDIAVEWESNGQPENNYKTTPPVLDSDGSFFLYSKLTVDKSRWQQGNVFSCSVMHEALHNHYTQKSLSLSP
light: B1 light
notes: as for B2
B8: M103205H795-MY001/M103202L889-SK1 (antibody, human IgG1, kappa)
heavy: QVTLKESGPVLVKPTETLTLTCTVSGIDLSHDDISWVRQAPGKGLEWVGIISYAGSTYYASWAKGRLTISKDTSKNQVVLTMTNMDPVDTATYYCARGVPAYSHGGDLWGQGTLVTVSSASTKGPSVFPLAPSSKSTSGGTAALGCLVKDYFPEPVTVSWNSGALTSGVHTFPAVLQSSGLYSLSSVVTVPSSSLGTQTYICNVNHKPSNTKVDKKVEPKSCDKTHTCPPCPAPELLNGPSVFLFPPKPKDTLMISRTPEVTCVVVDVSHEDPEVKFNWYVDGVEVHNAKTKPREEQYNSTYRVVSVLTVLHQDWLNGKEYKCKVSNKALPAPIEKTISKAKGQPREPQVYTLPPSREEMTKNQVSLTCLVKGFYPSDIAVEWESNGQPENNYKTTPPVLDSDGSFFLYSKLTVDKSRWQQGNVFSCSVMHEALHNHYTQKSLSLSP
light: B1 light
notes: as for B2
B9: M103205H795-MY321/M103202L889-SK1 (antibody, human IgG1, kappa)
heavy: B2 heavy with N238H, A269S, E270D, A332K, P398M
light: B1 light
B10: M103205H795-MY312/M103202L889-SK1 (antibody, human IgG1, kappa)
heavy: B2 heavy with N238T, A269S, K328T, A332K, P398M
light: B1 light
B11: M103205H795-MY311/M103202L889-SK1 (antibody, human IgG1, kappa)
heavy: B2 heavy with N238T, A269S, Q297L, A332K
light: B1 light
B12: M103205H795-MY310/M103202L889-SK1 (antibody, human IgG1, kappa)
heavy: B2 heavy with N238T, A269S, K328T, A332K
light: B1 light
B13: M103205H795-MY318/M103202L889-SK1 (antibody, human IgG1, kappa)
heavy: B2 heavy with N238L, A269S, K328T, A332K, P398M
light: B1 light
B14: M103205H795-MY309/M103202L889-SK1 (antibody, human IgG1, kappa)
heavy: B2 heavy with N238T, A269S, A332K, P398M
light: B1 light

Target: T1, cynomolgus monkey FcγRIIa1 …
Test: SPR (Biacore); KD of SG1 / KD of variant
Protocol: (§1) The kinetic analysis of interactions between these antibodies and FcγR was carried out using BIACORE® T200 or BIACORE® 4000 (GE Healthcare). HBS-EP+ (GE Healthcare) was used as the running buffer, and the measurement temperature was set to 25° C. A chip produced by immobilizing Protein A. Protein A/G or mouse anti-human IgG kappa light chain (BD Biosciences) onto a Series S Sensor Chip CM4 or CM5 (GE Healthcare) by the amine-coupling method was used. […] After the measurement, the antibody captured on the chip was washed off by allowing reaction with 10 mM glycine-HCl, pH1.5 and 25 mM NaOH so that the chip was regenerated and used repeatedly. The sensorgrams obtained as measurement results were analyzed by the 1:1 Langmuir binding model using the BIACORE® Evaluation Software to calculate the binding rate constant ka (L/mol/s) and dissociation rate constant kd (l/s), and the dissociation constant KD (mol/L) was calculated from these values. […] Regarding such interactions, KD values were calculated using the following 1:1 binding model described in BIACORE® T100 Software Handbook BR1006-48 Edition AE.
(§2) The behavior of interacting molecules according to the 1:1 binding model on BIACORE® can be described by Equation 1: Req=C·R max/(KD+C)+RI, wherein, Req is a plot of steady-state binding levels to analyte concentration. C is concentration, RI is bulk refractive index contribution in the sample, and Rmax is analyte binding capacity of the surface. When this equation is rearranged, KD can be expressed as Equation 2: KD=C·Rmax/(Req−RI)−C. KD can be calculated by substituting the values of Rmax, RI, and C into Equation 1 or Equation 2. From the current measurement conditions, RI=0, C=2 μmol/L can be used.
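Further: relative to parent M103205H795-SG1 carrying the SG1 human heavy chain constant region.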

Row | KD fold (SG1 = 1) [fold] | Binder
1 | 1 | B1
2 | 0.7 | B2
3 | 2.8 | B3
4 | 2.3 | B4
5 | 0.7 | B5
6 | 0.7 | B6
7 | 1.2 | B7
8 | 1.1 | B8

Target: T2, cynomolgus monkey FcγRIIa3 …
Test: SPR (Biacore); KD of SG1 / KD of variant
Protocol: as §1, §2

Row | KD fold (SG1 = 1) [fold] | Binder
9 | 1 | B1
10 | 0.9 | B2
11 | 4.4 | B3
12 | 2.4 | B4
13 | 0.7 | B5
14 | 0.9 | B6
15 | 2.6 | B7
16 | 1.1 | B8

Target: T3, cynomolgus monkey FcγRIIb extracellular …
Test: SPR (Biacore); KD of SG1 / KD of variant
Protocol: as §1, §2

Row | KD fold (SG1 = 1) [fold] | Binder
17 | 1 | B1
18 | 3.3 | B2
19 | 8.9 | B3
20 | 2 | B4
21 | 0.7 | B5
22 | 0.9 | B6
23 | 2.1 | B7
24 | 1 | B8

Target: T4, cynomolgus monkey FcγRIIIaS …
Test: SPR (Biacore); KD of SG1 / KD of variant
Protocol: as §1, §2

Row | KD fold (SG1 = 1) [fold] | Binder
25 | 1 | B1
26 | 0.21 | B2
27 | 0.14 | B3
28 | 0.07 | B4
29 | 0.05 | B5
30 | 0.17 | B6
31 | 0.08 | B7
32 | 0.05 | B8

Each binder was assayed against T5, human FcγRIIaH extracellular domain, … (assay: SPR (Biacore); KD of SG1 / KD of variant).
Protocol: as §1, §2

Row | KD fold (SG1 = 1) [fold] | Binder
33 | 1 | B1
34 | 0.5 | B2
35 | 0.8 | B3
36 | 0.6 | B4
37 | 0.2 | B5
38 | 0.3 | B6
39 | 0.4 | B7
40 | 0.2 | B8

Target: T6, human FcγRIIaR extracellular domain, …
Test: SPR (Biacore); KD of SG1 / KD of variant
Protocol: as §1, §2

Row | KD fold (SG1 = 1) [fold] | Binder
41 | 1 | B1
42 | 0.7 | B2
43 | 0.5 | B3
44 | 0.4 | B4
45 | 0.5 | B5
46 | 0.4 | B6
47 | 0.1 | B7
48 | 0.1 | B8

The binders below were run against T7, human FcγRIIb extracellular domain, … (assay: SPR (Biacore); KD of SG1 / KD of variant).
Protocol: as §1, §2

Row | KD fold (SG1 = 1) [fold] | Binder
49 | 1 | B1
50 | 6.1 | B2
51 | 6.4 | B3
52 | 1.4 | B4
53 | 1.2 | B5
54 | 2.3 | B6
55 | 3.1 | B7
56 | 0.6 | B8

Each binder was assayed against T8, cynomolgus monkey FcγRIIIaS extracellular domain, C-terminal His-tag (cynomolgus monkey, UniProt A3RFZ7 21-206 (rhesus entry)) (assay: SPR (Biacore), KD of SG1 / KD of variant).
T8 construct: also called cyno FcγRIIIaS; cynoFcγRIIIaS; not shown: His-tag added to C-terminus

Row | KD fold (SG1 = 1) [fold] | Binder
57 | 0.33 | B9
58 | 0.55 | B10
59 | 0.35 | B11
60 | 0.2 | B12
61 | 0.24 | B13
62 | 0.3 | B14
